{"source": "patent US20230346919A1", "target": "SARS-CoV-2 spike SΔ21 displayed on VSV-eGFP-SARS-CoV-2-SΔ21 particles (SARS-CoV-2 isolate Wuhan-Hu-1) (UniProt P0DTC2)", "experiment": "cell-based or functional assay", "data": [{"substance": "mAb S309 (antibody)", "values": [{"measurement": "EC50, neutralization of VSV-SARS-CoV-2-SΔ21 (GRNT, Vero E6 cells)", "result": 0.067, "unit": "µg/mL"}]}]}
